Data: patent US20180371066A1 (C2N DIAGNOSTICS, published 2018)
Blank lines part the entries; values can stand above or below the binder they belong to.

Legend:
[1] = biological target: T1, human tau (human, UniProt P10636 2-60); test: competition ELISA on plate-coated human tau against biotinylated HJ8.5; IC50 normalised to chimeric HJ8.5 (reference row); column C2N Run 2
T1 construct: also called soluble human tau; human tau protein

[2] = biological target: T2, recombinant human Tau-412 protein (human, UniProt P10636-7 1-412); test: SPR Biacore T200, mAb captured on Protein A, Tau-412 analyte, 1-to-1 model, chip A11/3
T2 construct: Analyte of the SPR study; also called human tau (1N4R, 412 amino acids)
Protocol: (§1) Kinetic data was obtained at a flow rate of 40 μL/min to minimize any potential mass transfer effects. Two repeats of the blank (no antigen) and the 2.5 nM concentration of the analyte were programmed into the kinetic run in order to check the stability of both the surface and analyte over the kinetic cycles. For the initial kinetic runs, 2-fold dilutions of Tau-412 from 40 nM to 0.156 nM were run. For kinetic analysis and on subsequent runs, an analyte range of 20 nM to 0.625 nM was selected. This range covered multiple analyte concentrations both above and below the reported KD.
(§2) The association phase was monitored for 500 seconds to allow some of the higher concentrations of analyte to reach steady state. In order to observe a sufficient signal decrease (>10%) during the dissociation phase of the kinetic cycle, dissociation was measured for 1200 seconds. As discussed in Section 5, the Fcs were allowed to stabilize for 600 seconds after each regeneration step. The signal from the reference channel Fc1 was subtracted from that of Fc2, Fc3 and Fc4.
(§3) The kinetic parameters for the interaction of Tau-412 with the 7 mAbs as measured using the Protein A capture system on the Biacore T200 are shown in Table F-2. To correct for differences in the capture level of the antibody between each binding cycle, a local Rₘₐₓ parameter was used in the 1-to-1 binding model. Kinetic analysis was performed in three independent runs using fresh preparations of Tau-412 and antibody. Run 1 and runs 2+3 used different vials of the antigen Tau-412; therefore the reported errors associated with the mean response probably represent variation in preparation of the analyte and differences in assay set-up and run. From run 1 to runs 2+3, the amount of antibody injected was adjusted to try to get closer to the target 300 RU capture levels.

[3] = biological target: T1, human tau; test: competition ELISA on plate-coated human tau against biotinylated HJ8.5; IC50 normalised to chimeric HJ8.5 (reference row); column External
[4] = biological target: T2, recombinant human Tau-412 protein; test: SPR Biacore T200, Protein A capture, mean of the Chimeric runs
Protocol: as §1, §2, §3

[5] = biological target: T1, human tau; test: competition ELISA on plate-coated human tau against biotinylated HJ8.5; IC50 normalised to chimeric HJ8.5 (reference row); column C2N Run 1
[6] = biological target: T2, recombinant human Tau-412 protein; test: SPR Biacore T200, mAb captured on Protein A, Tau-412 analyte, 1-to-1 model, chip A11/1
Protocol: as §1, §2, §3
Target sequence in this assay (P10636 other isoform, or with tags, fused parts or gaps limits assumed): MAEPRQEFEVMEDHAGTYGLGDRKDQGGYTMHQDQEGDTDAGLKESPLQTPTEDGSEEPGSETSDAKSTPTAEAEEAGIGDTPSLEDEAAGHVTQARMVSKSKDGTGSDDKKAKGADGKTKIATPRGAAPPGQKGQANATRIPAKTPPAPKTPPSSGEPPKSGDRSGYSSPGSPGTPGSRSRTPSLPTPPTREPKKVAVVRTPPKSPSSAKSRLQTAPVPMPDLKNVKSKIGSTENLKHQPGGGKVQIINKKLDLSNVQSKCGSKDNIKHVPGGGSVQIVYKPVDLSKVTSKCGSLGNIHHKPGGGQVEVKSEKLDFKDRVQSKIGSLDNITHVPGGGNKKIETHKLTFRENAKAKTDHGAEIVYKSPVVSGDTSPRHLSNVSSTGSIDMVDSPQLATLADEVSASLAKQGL

[7] = biological target: T2, recombinant human Tau-412 protein; test: SPR Biacore T200, mAb captured on Protein A, Tau-412 analyte, 1-to-1 model, chip A11/2
Protocol: as §1, §2, §3

[8] = biological target: T3, PEP_2875817; test: peptide array of 15-mers of human tau probed with the antibody; label LIN.AA (double alanine)
T3 peptide: GDRKDQGGYAAHQDQ

[9] = biological target: T4, PEP_2875809; test: as above
T4 peptide: TYGLGDRKDAAGYTM

[10] = biological target: T5, PEP_2875819; test: as above
T5 peptide: DRKDQGGYTAAQDQE

[11] = biological target: T6, PEP_2875827; test: as above
T6 peptide: QGGYTMHQDAAGDTD

[12] = biological target: T7, PEP_2875823; test: as above
T7 peptide: KDQGGYTMHAAQEGD

[13] = biological target: T8, PEP_2875811; test: as above
T8 peptide: YGLGDRKDQAAYTMH

[14] = biological target: T9, PEP_2875825; test: as above
T9 peptide: DQGGYTMHQAAEGDT

[15] = biological target: T10, PEP_2875821; test: as above
T10 peptide: RKDQGGYTMAADQEG

[16] = biological target: T1, human tau; test: competition ELISA on plate-coated human tau against biotinylated HJ8.5; IC50 normalised to chimeric HJ8.5; column C2N Run 1
[17] = biological target: T11, first 32 amino acids of human tau, expressed on yeast (human, UniProt P10636 1-32); test: yeast display, immunofluorescence
T11 construct: range 1-32; Yeast display scaffold not described
T11 chain (looked up): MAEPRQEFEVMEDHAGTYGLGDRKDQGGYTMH
Protocol: The epitope was mapped using yeast display. For this method, various peptides covering the sequence of human tau were expressed using by yeast. Binding of the HJ8.5 antibody to yeast in culture was measured by immunofluorescence. Binding to yeast, expressing variants of tau that included the first 34 amino acids was observed, but no binding, if the yeast only expressed the first 32 amino acids of tau.

[18] = biological target: T1, human tau; test: competition ELISA on plate-coated human tau against biotinylated HJ8.5; IC50 normalised to chimeric HJ8.5; column C2N Run 2
[19] = biological target: T12, rhesus monkey tau (rhesus monkey, UniProt P57786 2-60); test: direct ELISA on 96-well plates coated with tau at varied concentration; OD 650nm
T12 construct: also called rhesus tau
T12 sequence: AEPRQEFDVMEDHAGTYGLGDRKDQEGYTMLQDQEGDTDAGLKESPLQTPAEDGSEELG
Protocol: FIG. 10 illustrates the binding results for different anti human tau antibodies to either human or rhesus monkey tau. Murine anti human tau antibodies HJ8.5 and HJ8.7 alongside humanized variant VH1/VK2 (also referred to as C₂N-8E12) were tested. […] In order to determine whether these amino acid difference between the two species of tau, impacts the ability of antibodies HJ8.5/C₂N-8E12 to bind the following experiment was performed. Binding of C₂N-8E12, HJ8.5 (murine precursor of C₂N-8E12), and HJ8.7 (murine anti-human tau antibody that binds to an epitope of tau where the human and rhesus amino acid sequence is 100% conserved) to human and rhesus tau by coating 96 well ELISA plates with either human or rhesus tau at various concentrations was measured. […] As expected, HJ8.7 binds to both human and rhesus tau.

[20] = biological target: T13, PEP_2875806; test: peptide array of 15-mers of human tau probed with the antibody; label LIN
T13 peptide: GTYGLGDRKDQGGYT

[21] = biological target: T14, PEP_2875804; test: as above
T14 peptide: AGTYGLGDRKDQGGY

[22] = biological target: T15, PEP_2875814; test: as above
T15 peptide: LGDRKDQGGYTMHQD

[23] = biological target: T16, PEP_2875820; test: as above
T16 peptide: RKDQGGYTMHQDQEG

[24] = biological target: T17, PEP_2875816; test: as above
T17 peptide: GDRKDQGGYTMHQDQ

[25] = biological target: T18, PEP_2875808; test: as above
T18 peptide: TYGLGDRKDQGGYTM

[26] = biological target: T19, PEP_2875810; test: as above
T19 peptide: YGLGDRKDQGGYTMH

[27] = biological target: T20, PEP_2875824; test: as above
T20 peptide: DQGGYTMHQDQEGDT

[28] = biological target: T21, PEP_2875822; test: as above
T21 peptide: KDQGGYTMHQDQEGD

[29] = biological target: T22, PEP_2875812; test: as above
T22 peptide: GLGDRKDQGGYTMHQ

[30] = biological target: T23, PEP_2875826; test: as above
T23 peptide: QGGYTMHQDQEGDTD

[31] = biological target: T24, PEP_2875818; test: as above
T24 peptide: DRKDQGGYTMHQDQE

[32] = biological target: T1, human tau; test: competition ELISA on plate-coated human tau against biotinylated HJ8.5; IC50 normalised to chimeric HJ8.5; column External

T1 sequence (P10636 2-60 limits assumed): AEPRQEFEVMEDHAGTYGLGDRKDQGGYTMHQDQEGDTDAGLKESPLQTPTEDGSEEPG

IC50 (Relative to Chimera) [1]: 1 relative to Chimera
Kd [2]: 1.94 nM
koff [2]: 0.0014 s⁻¹
kon [2]: 723000 M⁻¹ s⁻¹
IC50 (Relative to Chimera) [3]: 1 relative to Chimera
Kd [4]: 1.99 nM
koff [4]: 0.00143 s⁻¹
kon [4]: 721000 M⁻¹ s⁻¹
IC50 (Relative to Chimera) [5]: 1 relative to Chimera
Kd [6]: 2.23 nM
koff [6]: 0.0016 s⁻¹
kon [6]: 718000 M⁻¹ s⁻¹
Kd [7]: 1.79 nM
koff [7]: 0.0013 s⁻¹
kon [7]: 722000 M⁻¹ s⁻¹
B1: chimeric HJ8.5 monoclonal antibody (antibody, V domains shown)
VH: EVKVEESGGGLVQPGGSMKLSCVVSGFTFSNYWVNWVRQSPEKGLEWVAQIRLKSDNYATHYEESVKGRFTISRDDSKSSVYLQMNNLRAEDSGIYYCTNWEDYWGQGTTLTVSS
VL: DIVLTQSPASLAVSLGQRATISCRASQSVSTSRYSYIHWYQQKPGQPPKLLIKYASNLESGVPARFSGSGSGTDFTLNIHPLEEEDAATYYCHHSWEIPLTFGAGTKLELK
notes: also called chimera; chimeric antibody

Binding Signal [8]: 2640
Binding Signal [9]: 2810
Binding Signal [10]: 2700
Binding Signal [11]: 427
Binding Signal [12]: 2710
Binding Signal [13]: 1780
Binding Signal [14]: 2710
Binding Signal [15]: 2710
IC50 (Relative to Chimera) [16]: 0.79 relative to Chimera
binding result [17]: no binding
IC50 (Relative to Chimera) [18]: 0.99 relative to Chimera
binding result [19]: no binding
Binding Signal [20]: 2640
Binding Signal [21]: 427
Binding Signal [22]: 2840
Binding Signal [23]: 2700
Binding Signal [24]: 2650
Binding Signal [25]: 2640
Binding Signal [26]: 2840
Binding Signal [27]: 2680
Binding Signal [28]: 2700
Binding Signal [29]: 2820
Binding Signal [30]: 399
Binding Signal [31]: 2690
IC50 (Relative to Chimera) [32]: 1.07 relative to Chimera
B2: murine anti-tau antibody HJ8.5 (antibody, V domains shown)
VH: EVKVEESGGGLVQPGGSMKLSCVVSGFTFSNYWVNWVRQSPEKGLEWVAQIRLKSDNYATHYEESVKGRFTISRDDSKSSVYLQMNNLRAEDSGIYYCTNWEDYWGQGTTLTVSS
VL: DIVLTQSPASLAVSLGQRATISCRASQSVSTSRYSYIHWYQQKPGQPPKLLIKYASNLESGVPARFSGSGSGTDFTLNIHPLEEEDAATYYCHHSWEIPLTFGAGTKLELK
notes: Murine monoclonal antibody; also called parent antibody; murine parent
